Measured values from the supplement of paper PMC10201428.
± gives the standard deviation of the averaged measurements.

Tests used:
[1] = test system: VchCAST RNA-guided transposition machinery (E. coli BL21(DE3) host, lacZ target); assay: relative integration efficiency (T-LR orientation) vs wild-type transposon end (log2 (normalized fold change)); transposon end mutated: left end; higher = more efficient transposition
Method in brief: (§1)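 Barcoded pools of 1549 left-end or 1849 right-end transposon variants were cloned into a pUC57 mini-transposon donor. Each pool was co-transformed with a T7-driven effector plasmid (CRISPR array, tniQ-cas8-cas7-cas6, tnsA-tnsB-tnsC) into E. coli BL21(DE3) and plated with 0.1 mM IPTG at 37°C for 18 h. Input plasmids and genomic integration junctions were PCR-amplified and Illumina-sequenced, with two biological output replicates and four wild-type barcodes as reference. Relative integration efficiency is output/input barcode abundance fold change, normalised to wild-type barcodes and log-transformed.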

[2] = test system: VchCAST RNA-guided transposition machinery (E. coli BL21(DE3) host, lacZ target); assay: relative integration efficiency (T-RL orientation) vs wild-type transposon end (log2 (normalized fold change)); transposon end mutated: left end; higher = more efficient transposition
Method in brief: as §1

| Sequence | relative integration efficiency (log2) [1] | relative integration efficiency (log2) [2] |
| --- | --- | --- |
| AATGTTGTTGATACAACCATAAAGTGATATTTACAACCATATATTGATATCTCTCACAACCATAAGTTGATATTTTTGTGAATCGAGTATTTCAGCAAAACTACTGCAGTAAGAAAGTTACTTCGTGGTATGGGAGGATCAAGGAGCCAATA | 2.35 ± 0.84 | -3.51 ± 1 |
| AATGTTGTTGATGCAACCATAAAGTGATATTTACCGACTGTCTGCCATCCGCCGCTGAACCGCAGCCCAACCATATATTGATATCTCACAAAACAACCATAAGTTGATATTTTTGTGAATCGAGTATTTCAGCAAAACTACTGCAGTAAGAA | -3.04 ± 1.6 | -2.98 ± 0.99 |
| AATGTTGTTGATGCAACCATAAAGTGATATTTAATAATTATTTATAATCAGCAACTTAACACACCCCACCAACGCGCGGTCGCGAGACACCCCACCAACGCCTGGTCGCGGGGGTGTCCGATCTGATTTCAGCAAAACTACTGCAGTAAGAA | -3.16 ± 0.77 | -5.82 ± 1.5 |
| AATGTTGTTGATGCAACCATAAAGTGATATTTAATAATTATTTATCAACCATATATTGATATCTCAATCAGCAACTTAACCACAAAAACAAAACAACCATAAGTTGATATTTTTGTGAATCGAGTATTTCAGCAAAACTACTGCAGTAAGAA | -2.91 ± 2.7 | -4.61 ± 1.4 |
| AATGTTGTTGATGCAACCATAAAATGATAATTAATAATTATTTATAATCAGCAACTTAACCACAAAACAACCATAAAATGATAATTAACAAAAGTTGGTATTCAACTATAAAATGTGAATCGAGTATTTCAGCAAAACTACTGCAGTAAGAA | -1.23 ± 2.7 | -2.57 ± 1.3 |
| AATGTTGTTGATGCAACCATAAGTTGATATTTTATAATTATTTATAATCAGCAACTTAACCACAAAACACCCATAAATTGATATTGCACAAAAGTTGGTATTCAACTATAAAATGTGAATCGAGTATTTCAGCAAAACTACTGCAGTAAGAA | -1.01 ± 1.3 | -3.48 ± 1.3 |
| AATGTTGTTGATGCAACCATAAAGTGATATTTAATAATTATTTATAATCAGCAACTTAACCACAAAACAACCATCGCGGTCGCGAGACACCCCACCAACGCCTGGTCGCGGGGGTGTCCGATCTGATTTCAGCAAAACTACTGCAGTAAGAA | -3.94 ± 2.1 | -7.35 ± 1.8 |
| AATGTTGTTGATGCAACCATAAAGTGATATTTAATAATTATTTATAATCAGCAACTTAACCACAACCATATATTGATATCTCACAAAACAACCATAAGTTGATATTTTCAAAATGTGAATCGAGTATTTCAGCAAAACTACTGCAGTAAGAA | -2.53 ± 1.4 | -5.07 ± 0.94 |
| AATGTTGTTGATGCAACCATAAAGTGATATTTAATAATTATTTATAATCAGCAACTTAACCACAAAACAACCATAGCGGTCGCGAGACACCCCACCAACGCCTGGTCGCGGGGGTGTCCGATCTGATTTCAGCAAAACTACTGCAGTAAGAA | -4.33 ± 1.8 | -6.21 ± 1.6 |
| AATGTTGTTGATGCAACCATAAAGTGATATTTAATAATTACAACCATATATTGATATCTCTTTATAATCAGCAACTTAACCACAAAAACAAAACAACCATAAGTTGATATTTTTGTGAATCGAGTATTTCAGCAAAACTACTGCAGTAAGAA | -2.04 ± 1.6 | -4.31 ± 0.99 |
| AATGTTGTTGATGCAACCATAAAGTGATATTTACGAATCAATTAAAATCATAGGCTTAATCGAAAAACAACCATATATTGATATCTCATAAAACAACCATAAGTTGATATTTTGGTGAAAAGGATATTCCAACCTTCATAGTTTAGTAAGAA | 0.612 ± 0.84 | 0.639 ± 0.032 |
| AATGTTGTTGATGCAACCATAAAGTGATATTTAATAATTGGCAGTGAGCGCAACGCAATTCACAAAACAACCATATATTGATATCTCACAAAACAACCATAAGTTGATATTTTTGTGAATCGAGTATTTCAGCAAAACTACTGCAGTAAGAA | -3.88 ± 2.9 | -2.76 ± 1 |
| AATGTTGTTGATGCAACCATAAAGTGATATTTAATAATTATTTATAATCAGCCCAGGCCAACACCCCACCAACGCGCGGTCGCGAGACACCCCACCAACGCCTGGTCGCGGGGGTGTCCGATCTGATTTCAGCAAAACTACTGCAGTAAGAA | -4.09 ± 1.1 | -6.41 ± 1.4 |
| AATGTTGTTGATGCAACCATAAAGTGATATTTAATAATTATTTATAATCAGCAACTTAACCACAAAACAACCATATATTGATATCTCACAAAAACCAACGCCCTGTCGCGGGCTGTGAATCGAGTATTTCAGCAAAACTACTGCAGTAAGAA | -1.71 ± 0.47 | -2.5 ± 0.88 |
| AATGTTGTTGATGCAACCATAAAGTGATATTTAATAATTATTTATAATCAGCAACTTAACCACAAAACAACCATATATTGATATCTCACAAAACAACCATAAGTTGATAGGGGGTGTCCGATCTGATTTCAGCAAAACTACTGCAGTAAGAA | -0.256 ± 0.057 | -0.795 ± 0.62 |
| AATGTTGTTGAAACAACCATAAAGTGATAACAACGAATCAATTAAAATCATAGGCTTAATCGAAAAACAACCATATCTTGATATCGCATAAAACAACCATAAGTTGATATTTTGGTGAAACGAGTATTTCAGCAAAACTACTGCAGTAAGAA | -0.44 ± 0.53 | 0.0434 ± 0.29 |
| AATGTTGTTGATGCAACCATAAAGTGATATTTAATACAACCATATATTGATATCTCACAAAACAACCATAAGTTGATATTTTTGTGAATCGAGTATTTCAGCAAAACTACTGCAGTAAGAAAGTTACTTCGTGGTATGGGAGGATCAAGGAG | -2.15 ± 1.6 | -4.83 ± 1.7 |
| AATGTTGTTGATGCAACCATAAAGTGATCGGGCATAATTATTTATAATCAGCAACTTAACCACAAAACAACCATATATTGATCGAGAACAAAACAACCATAAGTTGATCGGGGTGTGAATCGAGTATTTCAGCAAAACTACTGCAGTAAGAA | -3.33 ± 1.4 | -3.68 ± 1.3 |
| AATGTTGTTGATGCAACCATAAAGTGATATTTAATAATTATTTATAATCAGCAACTTAACCACACCCACCAACGCGCGGTCGCGAGACACCCCACCAACGCCTGGTCGCGGGGGTGTCCGATCTGATTTCAGCAAAACTACTGCAGTAAGAA | -3.59 ± 0.93 | -6.25 ± 1.4 |
| AATGTTGTTGATGCAACCATAAAGTGATATTTACGCCGGCGGGCGCCGACTACCAGGCCAACACCCCCAACCATATATTGATATCTCACAAAACAACCATAAGTTGATATTTTTGTGAATCGAGTATTTCAGCAAAACTACTGCAGTAAGAA | -2.85 ± 1.2 | -3.42 ± 1.2 |
| AATGTTGTTGATGTGTCAACCATAAAGTGATATTTAATAATTATTTATAATCAGCAACTTAACCACAAAACAACCATATATTGATATCTCACAAAACAACCATAAGTTGATATTTTTGTGAATCGAGTATTTCAGCAAAACTACTGCAGTAA | -2.19 ± 1.3 | -1.14 ± 0.25 |
| AATGTTGTTGATGCAACCATAAAGTGATATTTAATAATTATTTCGCCGACTACCAGGCCAACACCCCACCAACGCGCGGTCGCGAGACACCCCACCAACGCCTGGTCGCGGGGGTGTCCGATCTGATTTCAGCAAAACTACTGCAGTAAGAA | -6.08 ± 3.8 | -7.27 ± 1.6 |
| AATGTTGTTGATGCACCCATAAATTGATAATTAATAATTATTTATAATCAGCAACTTAACCACAAAACAACCATATATTGATATCTCACAAAAGTTGGTATTCAACTATAAAATGTGAATCGAGTATTTCAGCAAAACTACTGCAGTAAGAA | -1.82 ± 1.9 | -2.76 ± 1.1 |
| AATGTTGTTGATGCAACCATAAAGTGATATTTAATAATTATTTATAATCAGCAACTTAACCACAAAACAACCATATATTGATATCTCAACCCCACCAACGCCTGGTCGCGGGGGTGTCCGATCTGATTTCAGCAAAACTACTGCAGTAAGAA | -0.776 ± 1.1 | -2.58 ± 0.89 |
| AATGTTGTTGATGCAACCATAAAGTGATATTTAATAATTATTTATAATCAGCAACTTAACCACAAAAACCAACGCGCGGTCGCGAGAACAAAAACCAACGCCCTGTCGCGGGCTGTGAATCGAGTATTTCAGCAAAACTACTGCAGTAAGAA | -4.56 ± 2.1 | -6.97 ± 1.6 |
| AATGTTGTTGATGCAACCATAAAGTGATATTTAATAATTATTTATAATCAGCAACTTAACCACAAAACAACCATATATTGATATCTCACCCCCACCAACGCCTGGTCGCGGGGGTGTCCGATCTGATTTCAGCAAAACTACTGCAGTAAGAA | -1.5 ± 1.8 | -2.66 ± 0.95 |
| AATGTTGTTGATGCAACCATAAAGTGATATTTAATAATCAACTGTATATAAATACAGTTCCACAAAACAACCATATATTGATATCTCACAAAACAACCATAAGTTGATATTTTTGTGAATCGAGTATTTCAGCAAAACTACTGCAGTAAGAA | -5.77 ± 0.6 | -4.85 ± 1.1 |
| AATGTTGTTGATGCAACCATAAAGTGATATTTAATAATTATTTATAATCAGCAACTTAACCACAAAACAACCATATATTTCGCGAGACACCCCACCAACGCCTGGTCGCGGGGGTGTCCGATCTGATTTCAGCAAAACTACTGCAGTAAGAA | -4.98 ± 3.6 | -6 ± 1.3 |
| AATGTTGTTGATGCAACCATAAAGTGATATTTAACAACCATATATTGATATCTCACAAAACAACCATAAGTTGATATTTTTAATTATTTATAATCAGCAACTTAACCACAAAATGTGAATCGAGTATTTCAGCAAAACTACTGCAGTAAGAA | -0.212 ± 1.1 | -1.58 ± 0.69 |
